Values belong to the binder of their own block, whether it stands above or below them.
Assays:
HA3-San = biological target: T1, HA3-San (human, UniProt Q9GZZ1 1-169); experiment: co-IP
T1 sequence: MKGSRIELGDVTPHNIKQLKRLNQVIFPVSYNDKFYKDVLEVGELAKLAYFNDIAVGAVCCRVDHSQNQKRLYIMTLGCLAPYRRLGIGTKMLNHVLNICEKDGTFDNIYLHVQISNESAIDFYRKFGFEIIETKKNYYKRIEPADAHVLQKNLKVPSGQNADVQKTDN

HA3-Ard1 = biological target: T2, HA3-Ard1 (human, UniProt P41227 1-235); experiment: co-IP
T2 sequence: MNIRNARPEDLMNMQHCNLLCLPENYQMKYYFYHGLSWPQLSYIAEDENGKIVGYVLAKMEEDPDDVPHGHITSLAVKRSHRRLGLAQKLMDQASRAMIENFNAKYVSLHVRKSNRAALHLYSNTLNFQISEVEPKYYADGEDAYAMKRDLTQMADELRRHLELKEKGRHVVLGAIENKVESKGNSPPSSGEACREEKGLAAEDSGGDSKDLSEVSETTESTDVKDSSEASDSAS

- percent of input pulled down (HA3-San): > 10 % of input
B1: Ard1 (endogenous) (natural protein)
chain: T2 sequence

- percent of input pulled down (HA3-San): > 10 % of input
B2: NatH (endogenous) (natural protein)
chain: MPAVSLPPKENALFKRILRCYEHKQYRNGLKFCKQILSNPKFAEHGETLAMKGLTLNCLGKKEEAYELVRRGLRNDLKSHVCWHVYGLLQRSDKKYDEAIKCYRNALKWDKDNLQILRDLSLLQIQMRDLEGYRETRYQLLQLRPAQRASWIGYAIAYHLLEDYEMAAKILEEFRKTQQTSPDKVDYEYSELLLYQNQVLREAGLYREALEHLCTYEKQICDKLAVEETKGELLLQLCRLEDAADVYRGLQERNPENWAYYKGLEKALKPANMLERLKIYEEAWTKYPRGLVPRRLPLNFLSGEKFKECLDKFLRMNFSKGCPPVFNTLRSLYKDKEKVAIIEELVVGYETSLKSCRLFNPNDDGKEEPPTTLLWVQYYLAQHYDKIGQPSIALEYINTAIESTPTLIELFLVKAKIYKHAGNIKEAARWMDEAQALDTADRFINSKCAKYMLKANLIKEAEEMCSKFTREGTSAVENLNEMQCMWFQTECAQAYKAMNKFGEALKKCHEIERHFIEITDDQFDFHTYCMRKITLRSYVDLLKLEDVLRQHPFYFKAARIAIEIYLKLHDNPLTDENKEHEADTANMSDKELKKLRNKQRRAQKKAQIEEEKKNAEKEKQQRNQKKKKDDDDEEIGGPKEELIPEKLAKVETPLEEAIKFLTPLKNLVKNKIETHLFAFEIYFRKEKFLLMLQSVKRAFAIDSSHPWLHECMIRLFNTAVCESKDLSDTVRTVLKQEMNRLFGATNPKNFNETFLKRNSDSLPHRLSAAKMVYYLDPSSQKRAIELATTLDESLTNRNLQTCMEVLEALYDGSLGDCKEAAEIYRANCHKLFPYALAFMPPGYEEDMKITVNGDSSAEAEELANEI

- percent of input pulled down (HA3-Ard1): < 10 % of input
B3: San (endogenous) (natural protein)
chain: T1 sequence

— PMC2064205 (The Journal of Cell Biology, 2007)
